Laboratory results as given in PMC6783537.

Target: full-length mouse IGF1R (MmIGF1R), residues 1–1262, Y951A, D1107N (mouse) (UniProt Q60751)
Assay: cryo-EM structure; purified MmIGF1R and HsIGF1 mixed at molar ratio 1:2, 1 h at 4 °C, complex purified by SEC in 20 mM Hepes-Na pH 7.4, 200 mM NaCl, 0.03% DDM; 4.3 Å

full-length mouse IGF1R (MmIGF1R), residues 1–1262, Y951A, D1107N (mouse), sequence (Q60751 31-1292 Y981A/D1137N): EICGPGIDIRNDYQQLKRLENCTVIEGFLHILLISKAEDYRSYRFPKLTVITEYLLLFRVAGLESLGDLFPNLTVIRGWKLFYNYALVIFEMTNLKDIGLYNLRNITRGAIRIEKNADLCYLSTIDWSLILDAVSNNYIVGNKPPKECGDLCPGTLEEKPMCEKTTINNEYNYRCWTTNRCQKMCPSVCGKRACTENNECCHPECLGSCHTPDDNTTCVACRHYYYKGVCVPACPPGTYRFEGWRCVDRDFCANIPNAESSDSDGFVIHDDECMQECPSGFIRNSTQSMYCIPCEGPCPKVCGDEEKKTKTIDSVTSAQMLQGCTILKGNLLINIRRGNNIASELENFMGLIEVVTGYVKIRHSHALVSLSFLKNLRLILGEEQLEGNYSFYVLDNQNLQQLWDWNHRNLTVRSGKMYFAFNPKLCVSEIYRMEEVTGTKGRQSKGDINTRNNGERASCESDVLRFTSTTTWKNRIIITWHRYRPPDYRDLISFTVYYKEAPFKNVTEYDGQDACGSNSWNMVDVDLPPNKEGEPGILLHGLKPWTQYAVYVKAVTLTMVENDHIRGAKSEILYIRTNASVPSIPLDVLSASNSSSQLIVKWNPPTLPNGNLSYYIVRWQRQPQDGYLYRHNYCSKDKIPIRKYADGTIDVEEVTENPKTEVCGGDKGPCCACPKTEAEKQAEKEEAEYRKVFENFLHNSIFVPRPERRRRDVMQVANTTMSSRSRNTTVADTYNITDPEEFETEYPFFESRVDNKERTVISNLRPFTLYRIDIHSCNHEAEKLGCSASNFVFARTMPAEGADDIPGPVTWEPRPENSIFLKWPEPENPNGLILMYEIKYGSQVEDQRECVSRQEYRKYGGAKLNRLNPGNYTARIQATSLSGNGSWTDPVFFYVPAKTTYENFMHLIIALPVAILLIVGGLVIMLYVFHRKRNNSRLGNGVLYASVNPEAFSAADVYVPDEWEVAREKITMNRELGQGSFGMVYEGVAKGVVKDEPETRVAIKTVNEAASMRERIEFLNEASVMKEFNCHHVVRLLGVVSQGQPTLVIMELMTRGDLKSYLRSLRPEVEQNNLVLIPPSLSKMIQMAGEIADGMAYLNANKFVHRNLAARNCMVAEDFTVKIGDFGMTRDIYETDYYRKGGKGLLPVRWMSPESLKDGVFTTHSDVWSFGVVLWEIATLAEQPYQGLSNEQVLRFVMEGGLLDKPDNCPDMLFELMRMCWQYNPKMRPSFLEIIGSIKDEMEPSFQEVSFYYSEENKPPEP

**Q.** How did the stoichiometry N (IGF1 per IGF1R dimer) turn out when “human IGF1 (HsIGF1), mature, residues 49–118 (ligand)” was run?
**A.** Its stoichiometry N (IGF1 per IGF1R dimer) is 1.
